Reference: article PMC9482650, “Quantitative fragmentomics allow affinity mapping of interactomes” (Nature Communications, 2022)

Key:
Test in all cases: holdup assay
Design in all cases: key: below the threshold = too weak to quantify, mostly under pKd 3.1 to 4
NHERF3_1, Q5T2W1 = target: T1, NHERF3_1, Q5T2W1
T1 sequence (Q5T2W1 4-100, limits assumed, looked up): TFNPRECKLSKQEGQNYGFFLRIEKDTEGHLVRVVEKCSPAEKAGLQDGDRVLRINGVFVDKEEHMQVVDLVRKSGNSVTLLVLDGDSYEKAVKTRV

NOS1, P29475 = settings: plain residues with an end cap or a label only (N-terminal biotin on a linker: ttds)
MAGI2_6, Q86UL8 = settings: plain residues with an end cap or a label only (N-terminal biotin on a linker: ttds)
MPDZ_5, O75970 = target: T2, MPDZ_5, O75970
T2 sequence (O75970 695-796, limits assumed, looked up): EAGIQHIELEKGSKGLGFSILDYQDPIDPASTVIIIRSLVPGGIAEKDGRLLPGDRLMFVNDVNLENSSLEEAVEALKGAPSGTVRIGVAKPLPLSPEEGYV

FRMPD1, Q5SYB0 = target: T3, FRMPD1, Q5SYB0
T3 sequence (Q5SYB0 52-145, limits assumed, looked up): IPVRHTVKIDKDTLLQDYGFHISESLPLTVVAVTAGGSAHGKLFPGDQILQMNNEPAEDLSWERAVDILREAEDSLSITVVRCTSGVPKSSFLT

LIN7A, O14910 = target: T4, LIN7A, O14910
T4 sequence (O14910 103-200, limits assumed, looked up): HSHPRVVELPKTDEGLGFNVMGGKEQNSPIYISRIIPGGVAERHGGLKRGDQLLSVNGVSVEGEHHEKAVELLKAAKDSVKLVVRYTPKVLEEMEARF

PDLIM1, O00151 = target: PDLIM1, O00151
MPDZ_12, O75970 = target: T5, MPDZ_12, O75970
T5 sequence (O75970 1857-1958, limits assumed, looked up): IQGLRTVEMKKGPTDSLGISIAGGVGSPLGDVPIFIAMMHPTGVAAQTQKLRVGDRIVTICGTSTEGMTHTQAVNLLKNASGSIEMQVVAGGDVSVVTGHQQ

APBA2_1, Q99767 = target: T6, APBA2_1, Q99767
T6 sequence (Q99767 563-664, limits assumed, looked up): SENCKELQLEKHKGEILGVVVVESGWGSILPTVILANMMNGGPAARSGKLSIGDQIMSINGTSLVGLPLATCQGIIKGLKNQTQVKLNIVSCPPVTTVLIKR

GRID2IP_1, A4D2P6 = target: GRID2IP_1, A4D2P6
GRIP1_7, Q9Y3R0 = target: T7, GRIP1_7, Q9Y3R0
T7 sequence (Q9Y3R0 999-1096, limits assumed, looked up): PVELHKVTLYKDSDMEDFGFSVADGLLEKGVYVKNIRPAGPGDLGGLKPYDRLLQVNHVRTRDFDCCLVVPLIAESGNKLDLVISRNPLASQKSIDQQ

PARD3B_1, Q8TEW8 = target: T8, PARD3B_1, Q8TEW8
T8 sequence (Q8TEW8 196-299, limits assumed, looked up): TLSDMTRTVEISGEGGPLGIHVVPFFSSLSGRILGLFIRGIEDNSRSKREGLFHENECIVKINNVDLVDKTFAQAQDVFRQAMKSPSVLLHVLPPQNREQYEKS

MAGI2_3, Q86UL8 = target: MAGI2_3, Q86UL8
Inadl_3, Q8NI35 = target: Inadl_3, Q8NI35
LDB3, O75112 = target: LDB3, O75112
PDZRN3_1, Q9UPQ7 = target: T9, PDZRN3_1, Q9UPQ7
T9 sequence (Q9UPQ7 244-349, limits assumed, looked up): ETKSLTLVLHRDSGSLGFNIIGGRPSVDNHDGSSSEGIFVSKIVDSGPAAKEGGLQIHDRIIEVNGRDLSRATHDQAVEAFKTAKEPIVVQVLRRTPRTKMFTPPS

CARD11, Q9BXL7 = target: T10, CARD11, Q9BXL7
T10 sequence (Q9BXL7 662-765, limits assumed, looked up): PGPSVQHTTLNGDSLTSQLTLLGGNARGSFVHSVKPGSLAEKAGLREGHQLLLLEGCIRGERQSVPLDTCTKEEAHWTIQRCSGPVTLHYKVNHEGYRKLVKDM

PARD3_3, Q8TEW0 = target: PARD3_3, Q8TEW0
DLG4_1, P78352 = target: DLG4_1, P78352
APBA3_1, O96018 = target: T11, APBA3_1, O96018
T11 sequence (O96018 389-490, limits assumed, looked up): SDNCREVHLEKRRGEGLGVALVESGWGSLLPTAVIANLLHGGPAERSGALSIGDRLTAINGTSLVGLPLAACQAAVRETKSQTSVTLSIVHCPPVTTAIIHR

IL16_4, Q14005 = target: IL16_4, Q14005
GRIP1_5, Q9Y3R0 = target: T12, GRIP1_5, Q9Y3R0
T12 sequence (Q9Y3R0 568-668, limits assumed, looked up): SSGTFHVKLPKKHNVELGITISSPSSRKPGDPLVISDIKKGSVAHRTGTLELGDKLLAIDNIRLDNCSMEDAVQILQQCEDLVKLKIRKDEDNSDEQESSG

FRMPD4, Q14CM0 = target: FRMPD4, Q14CM0
DLG3_1, Q92796 = target: T13, DLG3_1, Q92796
T13 sequence (Q92796 125-227, limits assumed, looked up): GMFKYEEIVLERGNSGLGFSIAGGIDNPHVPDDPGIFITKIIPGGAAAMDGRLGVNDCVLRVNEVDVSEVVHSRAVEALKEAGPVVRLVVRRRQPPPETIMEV

[1] = plain residues with an end cap or a label only (N-terminal biotin on a linker: ttds)
[2] = plain residues with an end cap or a label only (N-terminal biotin on a linker: ahx)

Measured: pKd

PARD3_3, Q8TEW0, sequence (Q8TEW0 582-685): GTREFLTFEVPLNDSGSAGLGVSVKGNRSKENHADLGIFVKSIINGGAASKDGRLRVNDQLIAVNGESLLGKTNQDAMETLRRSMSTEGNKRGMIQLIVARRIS
GRID2IP_1, A4D2P6, sequence (A4D2P6 1-87): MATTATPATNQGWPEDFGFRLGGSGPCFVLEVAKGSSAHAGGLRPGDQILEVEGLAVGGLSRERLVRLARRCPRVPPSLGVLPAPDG
LDB3, O75112, sequence (O75112 1-94): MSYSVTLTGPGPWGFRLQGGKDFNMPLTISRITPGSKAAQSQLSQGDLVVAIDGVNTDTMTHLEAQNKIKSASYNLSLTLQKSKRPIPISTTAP
Inadl_3, Q8NI35, sequence (Q8NI35 359-469): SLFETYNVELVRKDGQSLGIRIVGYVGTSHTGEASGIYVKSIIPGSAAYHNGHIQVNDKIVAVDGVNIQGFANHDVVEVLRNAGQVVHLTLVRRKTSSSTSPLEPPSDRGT
MAGI2_3, Q86UL8, sequence (Q86UL8 600-682): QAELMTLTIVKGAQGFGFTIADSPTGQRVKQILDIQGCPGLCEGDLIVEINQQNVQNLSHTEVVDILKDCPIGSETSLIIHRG
IL16_4, Q14005, sequence (Q14005 1229-1329): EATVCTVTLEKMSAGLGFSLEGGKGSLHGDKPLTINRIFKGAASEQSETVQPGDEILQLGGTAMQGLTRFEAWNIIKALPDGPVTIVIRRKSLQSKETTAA
PDLIM1, O00151, sequence (O00151 1-87): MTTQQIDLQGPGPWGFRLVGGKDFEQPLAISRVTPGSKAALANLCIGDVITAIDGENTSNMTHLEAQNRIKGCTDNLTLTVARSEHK
DLG4_1, P78352, sequence (P78352 62-152): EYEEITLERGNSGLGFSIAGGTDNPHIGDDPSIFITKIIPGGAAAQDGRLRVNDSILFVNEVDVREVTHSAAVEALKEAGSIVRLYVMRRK
FRMPD4, Q14CM0, sequence (Q14CM0 67-160): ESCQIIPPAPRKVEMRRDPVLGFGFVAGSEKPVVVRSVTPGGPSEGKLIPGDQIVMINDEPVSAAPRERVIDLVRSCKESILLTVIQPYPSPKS
MAGI2_6, Q86UL8, sequence (Q86UL8 1141-1229): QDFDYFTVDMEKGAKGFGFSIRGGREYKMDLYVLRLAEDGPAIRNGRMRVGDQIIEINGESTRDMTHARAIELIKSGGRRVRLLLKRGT
NOS1, P29475, sequence (P29475 9-101): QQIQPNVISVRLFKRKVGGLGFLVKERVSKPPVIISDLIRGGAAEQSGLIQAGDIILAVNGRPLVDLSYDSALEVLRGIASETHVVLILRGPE

QPGTPTRTAV [MAP2K2, P36507]
below the threshold: NHERF3_1, Q5T2W1; [1] | MAGI2_6, Q86UL8 | FRMPD1, Q5SYB0; [1] | LIN7A, O14910; [1] | MPDZ_12, O75970; [1] | APBA2_1, Q99767; [1] | GRID2IP_1, A4D2P6; [1] | GRIP1_7, Q9Y3R0; [1] | PARD3B_1, Q8TEW8; [1] | Inadl_3, Q8NI35; [1] | LDB3, O75112; [1] | PDZRN3_1, Q9UPQ7; [1] | CARD11, Q9BXL7; [1] | DLG4_1, P78352; [1] | APBA3_1, O96018; [1] | IL16_4, Q14005; [1] | GRIP1_5, Q9Y3R0; [1] | FRMPD4, Q14CM0; [1] | DLG3_1, Q92796; [1]
3.6: MAGI2_3, Q86UL8; [1]
3.49: MPDZ_5, O75970; [1]
3.96: NOS1, P29475
3.47: PDLIM1, O00151; [1]
3.54: PARD3_3, Q8TEW0; [1]

RRVRKLPSTTL [RPS6KA1, Q15418]
4.03: NHERF3_1, Q5T2W1; [1]
3.68: DLG4_1, P78352; [1]
3.71: PARD3_3, Q8TEW0; [1]
3.61: MPDZ_5, O75970; [1]
3.75: PDZRN3_1, Q9UPQ7; [1]
4.4: PARD3B_1, Q8TEW8; [1]
below the threshold: MAGI2_6, Q86UL8 | FRMPD1, Q5SYB0; [1] | LIN7A, O14910; [1] | MPDZ_12, O75970; [1] | APBA2_1, Q99767; [1] | GRID2IP_1, A4D2P6; [1] | Inadl_3, Q8NI35; [1] | LDB3, O75112; [1] | CARD11, Q9BXL7; [1] | APBA3_1, O96018; [1] | IL16_4, Q14005; [1] | FRMPD4, Q14CM0; [1] | DLG3_1, Q92796; [1]
3.63: MAGI2_3, Q86UL8; [1]
3.7: NOS1, P29475
3.85: GRIP1_7, Q9Y3R0; [1]
3.52: GRIP1_5, Q9Y3R0; [1]
3.49: PDLIM1, O00151; [1]

LCKSHAFSHV [PDLIM7, Q9NR12;Q9NR12-1]
below the threshold: NHERF3_1, Q5T2W1; [2] | MPDZ_5, O75970; [2] | FRMPD1, Q5SYB0; [2] | LIN7A, O14910; [2] | PDLIM1, O00151; [2] | MPDZ_12, O75970; [2] | APBA2_1, Q99767; [2] | GRID2IP_1, A4D2P6; [2] | GRIP1_7, Q9Y3R0; [2] | PARD3B_1, Q8TEW8; [2] | MAGI2_3, Q86UL8; [2] | Inadl_3, Q8NI35; [2] | LDB3, O75112; [2] | PDZRN3_1, Q9UPQ7; [2] | CARD11, Q9BXL7; [2] | PARD3_3, Q8TEW0; [2] | DLG4_1, P78352; [2] | APBA3_1, O96018; [2] | IL16_4, Q14005; [2] | GRIP1_5, Q9Y3R0; [2] | FRMPD4, Q14CM0; [2] | DLG3_1, Q92796; [2]
